Results as given in patent US20070105924A1, “Vigabatrin bioisoteres and related methods of use” (priority 2005, published 2007).

Columns and labels:
Assay in all cases: purified protein, by the assay type
Conditions in all cases: other: substrate of GABA-AT, 1 h incubation, 25° C., pH 8.5
NCCc1nnn[nH]1 = test system: NCCc1nnn[nH]1
Procedure: (§1) After incubation (48 h for the preliminary test, 1 h for determination of kinetic constants), the mixture was quenched with trichloroacetic acid. The resulting [^14C]glutamate was isolated by cation-exchange chromatography, and the DPM (disintegration per minute) value was measured. Controls consisted of the entire incubation mixture with substrates omitted. The substrate kinetic constants kcat and Km were determined by the method of Hanes and Woolf, as referenced above.

NCCCc1nnn[nH]1 = test system: NCCCc1nnn[nH]1
Procedure: as §1

NCCCCc1nnn[nH]1 = test system: NCCCCc1nnn[nH]1
Procedure: as §1
NCCCC(=O)O = test system: NCCCC(=O)O

GABA-AT (Sus scrofa)
Km (NCCc1nnn[nH]1): 2300 µM | kcat (NCCc1nnn[nH]1): 0.265 s⁻¹ | kcat/Km (NCCc1nnn[nH]1): 115 M⁻¹ s⁻¹ | Km (NCCCc1nnn[nH]1): 2400 µM | kcat (NCCCc1nnn[nH]1): 0.477 s⁻¹ | kcat/Km (NCCCc1nnn[nH]1): 195 M⁻¹ s⁻¹ | Km (NCCCCc1nnn[nH]1): 8000 µM | kcat (NCCCCc1nnn[nH]1): 0.693 s⁻¹ | kcat/Km (NCCCCc1nnn[nH]1): 86.7 M⁻¹ s⁻¹ | Km (NCCCC(=O)O): 2400 µM | kcat (NCCCC(=O)O): 0.817 s⁻¹ | kcat/Km (NCCCC(=O)O): 340 M⁻¹ s⁻¹
